Source: the supplement of paper PMC12764529
± gives the half width of the 95% confidence interval.

What was measured:
[1] = folding stability dG unfold (combined trypsin and chymotrypsin); higher = more stable
Outline: (§1)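 Unfolding free energy was derived, per protease or combined, against a sequence-predicted unfolded-state K50 and a shared folded-state K50, starting from K50 inferred by Bayesian fitting of sequencing counts. Digestion with trypsin and chymotrypsin was carried out on designed mini-proteins under 80 residues without cysteine in a PA-tagged cDNA display construct. Only designs with AlphaFold2 dimer inter-PAE above 15 were kept.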

[2] = folding stability dG unfold from chymotrypsin proteolysis; higher = more stable
Outline: as §1

[3] = folding stability dG unfold from trypsin proteolysis; higher = more stable
Outline: as §1

Sequence	folding stability dG unfold [1] [kcal/mol]	folding stability dG unfold [2] [kcal/mol]	folding stability dG unfold [3] [kcal/mol]
SMVIEPKPDGTVTVTLPSSLPDLPREEVEAIVREALPPGASLGDSITVSRDPETGEVTVTAPVKFPPELASA [r9_1011_JUSTAS]	1.03 ± 0.084	0.544 ± 0.025	1.55 ± 0.076
SMVIPPGSRAEFRLEDVPVRLEVEEGSGKVHFRVFSPENPDEEVFEAEFDINDLKPLDLPPELREAFEKESA [r9_1051_TrMRF]	0.955 ± 0.18	1.18 ± 0.32	0.652 ± 0.057
SMVITLPVEDEEKLKELLDELKEQLEKAEEEGLETVTITITLEDGETLEITIDKNMTVEELLEQLEKALESA [r9_127_TrROS_Hall]	2.61 ± 0.29	1.57 ± 0.12	3.22 ± 0.33
SMVKIYFPNAPPELVAEAIEKHPDSTVEIYFEPGKPDVFESILKDYDVEVEPFPTEDGRLLVKARVKVPGSA [r9_1138_TrMRF]	1.74 ± 0.29	1.32 ± 0.12	2.11 ± 0.13
SMVVIEVEPNPETNSLTAKVYLPKDGKKVVEIERSPDGTVKVTVYYKDGSKEEFTFPEDIPIEEAIKKAISA [r9_346_TrMRF]	1.15 ± 0.095	1.1 ± 0.13	1.16 ± 0.037
SMVVPVLIEKPYTSPEELEEFKKEAEELVKKLAEETGYPIKVLETKYTTDPNTNVVSLTLVVEIVSPELNSA [r9_105_JUSTAS]	2.45 ± 0.17	2.6 ± 0.14	1.97 ± 0.1
SMVYVFEVPEGDPEKAEELIRAKLEEEFGYKVESVATPGGGGARVVLVVDPVEDKAYAEVIPFAPDGSPASA [r9_173_TrMRF]	0.618 ± 0.16	1.15 ± 0.2	-0.529 ± 0.21
SMYTTVTVEVDITLADKTPDGTWTPVGTFPIKVTVTVPESRPEEAREEALARARAEVEAFAASRGLTVVVSA [r9_356_JUSTAS]	2.07 ± 0.079	2.21 ± 0.043	1.76 ± 0.043
SMYYLVTITVTIRKDGKPVSVTPIYLAVPPEKAEEVAAEIKKSHPDLEVTITMEVTEVSEDDEEVKELLKSA [r9_782_JUSTAS]	2.79 ± 0.19	3.36 ± 0.085	1.92 ± 0.13
SNEPPVIEIKFRIDEVQPMNGQPMIMFEITEIEDAPPEIQDLLKNGYYIMIHMPPGEPLKEGEEFEIHIFSA [r9_557_TrROS]	2.01 ± 0.3	2.75 ± 0.12	1.34 ± 0.09
SNKIDKRIVSVTFYESLPNGSVKVNNLVFISTSDGKVRLVNAGEITIPLGDKTLSINIGEASSNVKLGKISA [r9_1113_TrMRF]	1.37 ± 0.041	1.52 ± 0.032	1.01 ± 0.034
SNKKWRTIELDFWFRTPEQAREWANNLARRLPPDNIDSISVEVEPFPVRKNGEPVGPVYRFKLTIMVRPESA [r9_605_TrROS]	2.6 ± 0.091	2.82 ± 0.032	2.33 ± 0.062
SNLMIHFENPDNGVRVMIQINPEHGRIKLSVMYPNGKPVAEQTIEVDPNKIRLRFKVGGRKFEIEIEIPESA [r9_385_TrROS]	5.62 ± 0.54	5.6 ± 0.29	4.32 ± 0.19
SNNKRITIEIPFPMPAEQARNFMEAFGIKKIEYEKHDDPGYYRVKYTVPDDNVTIDIHIFPPPVPPGQKPSA [r9_1090_TrROS]	1.67 ± 0.13	1.83 ± 0.15	1.23 ± 0.024
SNPNEPLTAEEIAKHIEEFMQEEHGIDKIKPEEFTVNPPDGYIKVEMEIEHKNPPGQKHKIDIWIPPDDLSA [r9_1002_TrROS]	< -1	0.0346 ± 0.14	0.0662 ± 0.22
